# Substitutions are numbered along the chain they refer to. Numbers in names are those of the source.
# T1: ckCDH19(1-43)::FLAG::ckCDH19(44-776) (construct J, Ck EC1-5) (chicken)
# T1 construct: the entry holds leader (1-43), FLAG and ckCDH19(44-776); leader left out; also called chicken Cadherin19
# T1 chain: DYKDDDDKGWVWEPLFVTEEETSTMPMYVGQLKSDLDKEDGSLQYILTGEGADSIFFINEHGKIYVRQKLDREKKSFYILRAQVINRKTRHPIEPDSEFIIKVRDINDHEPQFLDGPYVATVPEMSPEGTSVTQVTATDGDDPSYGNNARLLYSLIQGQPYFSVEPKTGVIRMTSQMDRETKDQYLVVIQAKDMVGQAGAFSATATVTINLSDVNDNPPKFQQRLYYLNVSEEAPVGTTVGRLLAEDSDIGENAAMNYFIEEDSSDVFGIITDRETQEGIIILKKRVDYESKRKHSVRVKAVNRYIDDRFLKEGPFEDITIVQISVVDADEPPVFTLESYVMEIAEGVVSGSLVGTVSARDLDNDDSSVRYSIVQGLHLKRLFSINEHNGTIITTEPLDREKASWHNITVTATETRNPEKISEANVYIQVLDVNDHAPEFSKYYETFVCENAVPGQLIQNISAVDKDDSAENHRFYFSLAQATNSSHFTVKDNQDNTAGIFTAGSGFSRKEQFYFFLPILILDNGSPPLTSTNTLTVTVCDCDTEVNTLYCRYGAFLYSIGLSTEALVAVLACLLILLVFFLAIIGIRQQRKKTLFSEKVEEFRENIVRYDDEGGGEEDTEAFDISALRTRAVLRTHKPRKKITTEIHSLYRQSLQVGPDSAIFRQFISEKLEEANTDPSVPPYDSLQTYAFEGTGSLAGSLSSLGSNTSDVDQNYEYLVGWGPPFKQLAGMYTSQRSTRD
# T2: rhCDH19(1-43)::FLAG::rhCDH19(44-772) (construct P, Rh EC1-5) (rhesus macaque, UniProt Q9H159 44-772 (human entry))
# T2 construct: leader (1-43 of the entry) left out; also called rhesus macaque Cadherin19
# T2 chain: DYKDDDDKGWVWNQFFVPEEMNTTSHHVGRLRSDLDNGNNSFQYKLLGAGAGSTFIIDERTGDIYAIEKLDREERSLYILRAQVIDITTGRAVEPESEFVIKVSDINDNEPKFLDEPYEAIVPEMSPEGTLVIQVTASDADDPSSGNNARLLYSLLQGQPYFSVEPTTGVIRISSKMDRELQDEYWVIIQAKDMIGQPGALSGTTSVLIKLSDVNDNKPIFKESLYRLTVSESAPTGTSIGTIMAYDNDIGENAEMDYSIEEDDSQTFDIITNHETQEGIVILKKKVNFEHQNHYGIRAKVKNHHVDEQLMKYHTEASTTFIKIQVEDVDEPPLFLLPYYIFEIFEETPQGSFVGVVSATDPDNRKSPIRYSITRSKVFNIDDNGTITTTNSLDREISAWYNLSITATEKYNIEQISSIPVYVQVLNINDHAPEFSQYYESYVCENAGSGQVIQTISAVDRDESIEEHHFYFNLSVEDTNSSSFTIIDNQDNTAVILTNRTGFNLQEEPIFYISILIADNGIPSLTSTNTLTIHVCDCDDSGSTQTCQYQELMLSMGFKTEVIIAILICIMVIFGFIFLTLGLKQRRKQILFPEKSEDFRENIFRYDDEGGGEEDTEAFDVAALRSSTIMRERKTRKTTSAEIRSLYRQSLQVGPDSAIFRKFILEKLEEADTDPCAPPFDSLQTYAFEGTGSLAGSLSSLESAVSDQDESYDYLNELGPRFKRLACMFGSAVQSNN
# T3: raCDH19(1-43)::FLAG::raCDH19(44-770) (construct W, Ra EC1-5) (rat)
# T3 construct: leader (1-43 of the entry) left out; also called rat Cadherin19
# T3 chain: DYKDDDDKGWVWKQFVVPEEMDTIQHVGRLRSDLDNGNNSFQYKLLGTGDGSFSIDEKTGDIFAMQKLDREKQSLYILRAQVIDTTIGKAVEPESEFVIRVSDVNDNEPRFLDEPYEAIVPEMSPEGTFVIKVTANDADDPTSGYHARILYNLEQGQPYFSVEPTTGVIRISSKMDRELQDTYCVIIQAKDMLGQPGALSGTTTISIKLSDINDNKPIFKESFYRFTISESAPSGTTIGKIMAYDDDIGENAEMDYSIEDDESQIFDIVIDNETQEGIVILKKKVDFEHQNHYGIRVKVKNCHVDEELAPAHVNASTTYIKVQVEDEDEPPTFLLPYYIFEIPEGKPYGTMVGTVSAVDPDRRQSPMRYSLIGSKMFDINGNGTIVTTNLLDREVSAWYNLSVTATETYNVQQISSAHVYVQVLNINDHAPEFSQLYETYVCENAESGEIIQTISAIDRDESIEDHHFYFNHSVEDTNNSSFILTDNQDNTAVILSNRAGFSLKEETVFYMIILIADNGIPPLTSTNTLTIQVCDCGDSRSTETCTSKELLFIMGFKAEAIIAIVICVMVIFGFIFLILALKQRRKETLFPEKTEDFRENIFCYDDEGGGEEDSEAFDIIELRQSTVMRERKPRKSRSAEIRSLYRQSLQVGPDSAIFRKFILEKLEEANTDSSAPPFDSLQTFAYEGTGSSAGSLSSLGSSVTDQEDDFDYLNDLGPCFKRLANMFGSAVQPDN
# B1: anti-CDH19 antibody 4A2 (Ab ID 13592) (antibody, human IgG1, kappa, V domains shown)
# VH: QVQLQESGPGLVKPSQTLSLTCTVSGGSISSSGYYWSWIRQHPGKGLEWIGYIYYTGSAYYNPSLKSRVTISVDTSKNQFSLKLSSVTAADTAVYYCARDGSSGWYFQYWGQGTLVTVSS
# VL: EIVLTQSPGTLSLSPGERATLSCRASRNISSSYLAWYQQKPGQAPRLLIYGPSSRATGIPDRFSGSGSGTDFTLTISRLEPEDFTVYYCQQYGSSFTFGPGTKVDIKR
# notes: Bin 4
# B2: hu anti-<huCDH19> 4B10 (Ab ID 13590) (antibody, V domains shown)
# VH: QVQLVESGGGVVQPGRSLRLSCAASGFTFSSYDMHWVRQAPGKGLEWVAVISYDGTNEYYADSVKGRFTISRDTSKNTLYLQMNSLRAEDTAVYYCARERYFDWSFDYWGQGTLVSVSS
# VL: EIVLTQSPGTLSLSPGERATLSCRASQSVSNTYLAWYHQRPGQAPRLLIYGASSRATGIPDRFSGSGSGTDFALTISSLEPEDFAVYYCQQYSNSWTFGQGTKVEIKR
# notes: huIgG1z / huKLC; Bin 4
# B3: hu anti-<huCDH19> 4A9 (Ab ID 13589) (antibody, human IgG1, lambda, V domains shown)
# VH: QVQLQESGPGLVKPSETLSLTCTVSGGSISGYYWSWIRQPPGKGLEWFAYFSYSGSTNYNPSLKSRVTLSVDTSKNQFSLKLSSVTAADTAVYYCARNWAFHFDFWGQGTLVTVSS
# VL: QSVLTQPPSVSGAPGQRVTISCTGSSSNIGTGYAVHWYQQFPGTAPKLLIYGNNNRPSGVPDRFSGSKSGTSASLAITGLQAEDEADYYCQSYDSRLSGWVFGGGTKLTVLG
# notes: huIgG1z / huLLC-C1; Bin 1
# B4: hu anti-<huCDH19> 26D1.1 (Ab ID 13882) (antibody, human IgG1, lambda, V domains shown)
# VH: QVQLVQSGAEVKKPGASVKVSCKASRYTFTSYYMSWVRQAPGQGLEWMGIIHPSGGDTTYAQKFQGRVTMTGDTSTSTVYMELSSLRSEDTAVYYCARGGIKLWLHFDYWGQGTLVTVSS
# VL: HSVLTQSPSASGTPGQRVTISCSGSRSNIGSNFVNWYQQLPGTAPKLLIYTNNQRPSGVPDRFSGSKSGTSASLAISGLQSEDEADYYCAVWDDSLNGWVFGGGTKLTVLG
# notes: huIgG1z / huLLC-C2; Bin 2
# B5: hu anti-<huCDH19> 25F8.1 (1-469)(F90Y) VH::huIgG1z + 25F8.1 (1-235)(K45Q,S102A,D111E) VL::huLLC-C2 (Ab ID 14096) (antibody, V domains shown)
# VH: B4 VH with R26G, M34I, S35H, H52N, D57S, T59R, G72R, K102Q
# VL: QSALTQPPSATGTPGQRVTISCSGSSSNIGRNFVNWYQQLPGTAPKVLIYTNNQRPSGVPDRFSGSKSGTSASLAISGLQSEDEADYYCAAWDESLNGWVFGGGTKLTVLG
# notes: Engineered variant of 25F8; the entries already carry the changes; Bin 2
# B6: anti-CDH19 antibody 2G6 (Ab ID 13588) (antibody, human IgG1, lambda, V domains shown)
# VH: QVQLVESGGGVVQPGRSLRLSCAASGFTFSSYGMHWVRQAPGKGLEWVAFIWYDGSNKYYADSVKDRFTISRDNSKNTLYLQMKSLRAEDTAVYYCARRAGIIGTIGYYYGMDVWGQGTTVTVSS
# VL: SYELTQPPSVSVSPGQTASITCSGDRLGEKYTCWYQQRPGQSPLLVIYQDTKRPSGIPERFSGSNSGNTATLTISGTQAMDEADYYCQAWDSSTVVFGGGTKLTVLG
# notes: Bin 4
# B7: hu anti-<huCDH19> 23A10.3 (1-474)(L92Q) VH::huIgG1z + 23A10.3 (1-231)(C42S) VL::huLLC-C2 (Ab ID 14077) (antibody, V domains shown)
# VH: B6 VH with S31R, M34I, F50V, D66G, K84N, T91S, I103P, I106T
# VL: B6 VL with T32V, C33S, R38K, L44I, T51N, R53W
# notes: Engineered variant of 23A10; the entries already carry the changes; Bin 4
# Molecular target: T1, ckCDH19(1-43)::FLAG::ckCDH19(44-776) …
# Experiment: flow cytometry, transfected 293T cells, 2 mM CaCl2
# Description: (§1) The experiment included assaying a subset of anti-CDH19 antibodies against chicken Cadherin19 to determine suitability for binning on these human/chicken chimeras.
# (§2) The following binding assay was completed in presence of 2 mM CaCl₂). […] Cells were then washed one time and the amount of cell associated Alexa647-labelled Ab was quantitated by flow cytometry. The experiments included mock transfected controls.
row,binding result,Binder
1,no binding (tested: 5 ug/ml),B1
2,no binding (tested: 5 ug/ml),B2
3,no binding (tested: 5 ug/ml),B3
4,no binding (tested: 5 ug/ml),B4
5,no binding (tested: 5 ug/ml),B5
6,no binding (tested: 5 ug/ml),B6
7,no binding (tested: 5 ug/ml),B7

# Molecular target: T4, ckCDH19(1-43)::FLAG::ckCDH19(44-249)::huCDH19(250-364)::ckCDH19(365-776) (construct M, Hu EC3) (human/chicken chimera)
# T4 construct: leader (1-43 of the entry) left out
# Experiment: flow cytometry, transfected 293T cells, 2 mM CaCl2
# Description: as §1, §2
row,binding result,Binder
1,binds,B2
2,no binding (tested: 5 ug/ml),B3
3,no binding (tested: 5 ug/ml),B4
4,no binding (tested: 5 ug/ml),B5
5,binds,B6
6,binds,B7

# Molecular target: T2, rhCDH19(1-43)::FLAG::rhCDH19(44-772) …
# Experiment: flow cytometry, transfected 293T cells, 2 mM CaCl2
# Description: as §2
row,binding result,Binder
1,binds,B1
2,binds,B2
3,binds,B3
4,binds,B4
5,binds,B5
6,binds,B6
7,binds,B7

# Molecular target: T3, raCDH19(1-43)::FLAG::raCDH19(44-770) …
# Experiment: flow cytometry, transfected 293T cells, 2 mM CaCl2
# Description: as §2
row,binding result,Binder
1,binds,B2
2,no binding (tested: 5 ug/ml),B3
3,no binding (tested: 5 ug/ml),B4
4,no binding (tested: 5 ug/ml),B5
5,binds,B6
6,binds,B7

# Source: patent publication US20220127354A1 (Amgen, published 2022)
